# Data published in article PMC8008188.
# Target: bone sialoprotein, full length 90 kDa, of UMR106-01 osteoblastic cultures (rat (endogenous in UMR106-01)) (UniProt P13839)
# Experiment: co-elution on anion-exchange chromatography; EDTA extract of mineralizing UMR106-01 cultures on POROS 20 HQ in 0.05 M sodium acetate pH 5.2, 8 M urea, 0.1% CHAPS; 0 to 0.6 M NaCl gradient, then 2 M NaCl step; fractions read by dot blot and Western blot with anti-BSP and anti-6b antibodies
# UniProt P13839, sequence (P13839 17-320): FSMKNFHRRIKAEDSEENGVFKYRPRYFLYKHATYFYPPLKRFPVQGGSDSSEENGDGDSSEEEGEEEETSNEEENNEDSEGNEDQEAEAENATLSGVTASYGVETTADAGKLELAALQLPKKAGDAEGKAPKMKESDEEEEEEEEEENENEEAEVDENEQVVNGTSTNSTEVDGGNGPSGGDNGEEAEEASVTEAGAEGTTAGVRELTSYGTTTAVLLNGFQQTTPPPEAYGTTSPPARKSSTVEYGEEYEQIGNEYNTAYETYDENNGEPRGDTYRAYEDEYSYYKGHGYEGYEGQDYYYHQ
substance,measurement,value
60 kDa Col11a1 N-terminal domain (NTD) fragment with the “6b” exon sequence (domain or fragment),percent of the fragment co-eluting with BSP,> 80%
